Assay results taken from patent US20060110388A1 (APPLIED MOLECULAR EVOLUTION, published 2006).
Values joined by “and” are separate entries in the source; they are usually repeats but may differ in a detail not shown here. Identical values can stand only once. One block for each binder: values may come before it.

What was measured:
[1] = target: T1, β Amyloid peptide 1-40 (human, UniProt P05067 672-711); assay: KinExA, Fab, equilibration 24 h
T1 construct: domain: β Amyloid peptide 1-40; Biotinylated peptide 1-40 (Biosource) on avidin Sepharose only captured free antibody in KinExA; also called Aβ 1-40; human Aβ (1-40)
Experimental: (§1) Typical 1× concentrations were 10 pM of antibody active sites (0.75 ng/mL) and an upper antigen concentration of 100 pM (0.43 ng/mL). The samples were then allowed to equilibrate for 24-72 hours at room temperature. A KinExA™ instrument (Sapidyne) and standard KD run file were then used to determine the KD of the system. Briefly, the KinExA™ flow cell was charged with the β Amyloid peptide coated beads and washed with PBSA. For the first sample, free antibody in solution was captured by the beads washed with PBSA and detected using 1:250 Goat anti-human Cy5 (Jackson Immunochemicals) in PBSA. The flow cell was then flushed, re-charged with beads and the next sample analyzed. The process was repeated until all 12 samples were analyzed.
(§2) For KinExA™ kₒₙ and koff measurements, antigen and antibody were prepared as described above. Antigen and antibody samples at 2× active concentration were prepared in PBSA with 0.2% BSA. Samples were mixed 1:1 and the timing for the experiment started. Typical 1× concentrations were 1 nM antibody active site concentration ([…]) and 2 nM antigen (8.6 ng/mL). A KinExA™ instrument (Sapidyne) and a kineticsdirect run file were used to follow the reaction. Time for each measurement was determined using the manufacturer's instructions. Free antibody remaining in the reaction was captured using β amyloid coated beads packed into the flow cell washed with PBSA and detected at each time point using 1:250 Goat anti-human Cy5 (Jackson) in PBSA. The flow cell was then flushed and recharged with beads for the next measurement, the process continued until a complete decay curve obtained. The data was analyzed using the KinExA™ Inject software.

[2] = target: T1, β Amyloid peptide 1-40; assay: BIAcore; against m266
Experimental: (§3) BIAcore™ is an automated biosensor system that measures molecular interactions (Karlsson, et al. (1991) J. Immunol. Methods 145: 229-240). BIAcore™ analyses described herein were carried out at 25° C. In these experiments, antibody was immobilized at low density on a BIAcore™ CM5 or B1 chip. For the m266 antibody goat anti-mouse Fc (Jackson Immunoresearch) immobilized on CM5 in flow cell 2 was used for measuring binding constants. Goat anti-mouse was used as control antibody in flow cell 1. For the humanized antibodies, protein A or protein A/G was immobilized via amine coupling to flow cells 1 and 2 of a B1 or CM5 sensor chip.
(§4) Antibody was then captured only to flow cell 2 at desired levels (usually a 10-60 second injection of antibody) and allowed to stabilize for 5 minutes. For these experiments, a fresh aliquot of Aβ 1-40 was thawed and then diluted 1:10 in HBS-EP running buffer. The 1:10 dilution was used to make up a 200 nM Aβ solution which was serially diluted (1:2 dilutions) to a lowest concentration of 6.25 nM. Each concentration was injected over the surface for 5 minutes at a flow rate of 50 μl/min (250 μl total). The Aβ and antibody were eluted from both flow cells with a 40s injection of glycine pH 1.5. The signal is allowed to stabilize for 2 minutes before the next cycle. The data from flow cell 1 is subtracted from flow cell 2 to account for any bulk shifts due to buffer differences or non-specific binding to the sensor chip or Protein A. The various concentrations were injected randomly and each concentration was run in duplicate. Two control runs of buffer only were used to control for any dissociation of antibody from the capture surface. The data was analyzed using the Biaevalution™ software. A 1:1 model with mass transfer and a local Rmax was used as the best fit for the data.
Concentrations of human Aβ (1-40) from 200 nM to 1.6 nM in 2-fold serial dilution were used to obtain on-rate constant. The upper half of Table 6 represents determinations made with a first set of antibody preparations, while the lower half represents determinations made with a second set of antibody preparations

[3] = target: T1, β Amyloid peptide 1-40; assay: KinExA, mAb, single experiment
Experimental: as §2
(§5) Association rate constants (kₒₙ) of m266 and antibodies of the present invention with Aβ were determined by KinExA™, using methods as described above in Example 1. The results of two separate kₒₙ determinations by KinExA™, in which separate preparations of antibodies were used, are provided in Tables 7 and 8.

[4] = target: T1, β Amyloid peptide 1-40; assay: KinExA, mAb, single experiment; remark: listed apart in the source
Experimental: as §1

[5] = target: T1, β Amyloid peptide 1-40; assay: BIAcore, mAb captured, Aβ 1-40 injected, first set of preparations
Experimental: as §3, §4
Concentrations of human Aβ (1-40) from 200 nM to 1.6 nM in 2-fold serial dilution were used to obtain on-rate constant. […]

[6] = target: T1, β Amyloid peptide 1-40; assay: KinExA, mAb, single experiment, separate antibody and antigen preparations
Experimental: as §2
(§6) Association rate constants (kₒₙ) of m266 and antibodies of the present invention with Aβ were determined by KinExA™, using methods as described above in Example 1. […]
(§7) ^aNumbers in bold are the averages calculated from individual experiments. ^bA separate preparation of antibodies was used for these experiments. ^cA separate preparation of antigen was used for these experiments.

[7] = target: T1, β Amyloid peptide 1-40; assay: KinExA, mAb, average of the experiments
Experimental: as §1

[8] = target: T1, β Amyloid peptide 1-40; assay: KinExA, mAb, equilibration 24 h
Experimental: as §1, §2

[9] = target: T1, β Amyloid peptide 1-40; assay: KinExA, mAb, average of the experiments; remark: listed apart in the source
Experimental: as §2, §5

[10] = target: T1, β Amyloid peptide 1-40; assay: KinExA, mAb; against m266
Experimental: as §1

[11] = target: T1, β Amyloid peptide 1-40; assay: KinExA, mAb, average of the experiments; remark: listed apart in the source
Experimental: as §2, §5

[12] = target: T1, β Amyloid peptide 1-40; assay: KinExA, mAb, single experiment, separate antibody preparation
Experimental: as §2, §6, §7

[13] = target: T1, β Amyloid peptide 1-40; assay: KinExA, mAb, single experiment; remark: listed apart in the source
Experimental: as §2, §5

[14] = target: T1, β Amyloid peptide 1-40; assay: KinExA, mAb; against m266; remark: listed apart in the source
Experimental: as §2, §5

[15] = target: T1, β Amyloid peptide 1-40; assay: KinExA, mAb, single experiment, separate antigen preparation
Experimental: as §2, §6, §7

[16] = target: T1, β Amyloid peptide 1-40; assay: KinExA, mAb
Experimental: as §1

[17] = target: T1, β Amyloid peptide 1-40; assay: KinExA, mAb, equilibration 16 h
Experimental: as §1, with “The samples were then allowed to equilibrate for 24-72 hours at room temperature.” left out
as §2

[18] = target: T1, β Amyloid peptide 1-40; assay: BIAcore, mAb captured, Aβ 1-40 injected, second set of preparations
Experimental: as §3
Antibody was then captured only to flow cell 2 at desired levels (usually a 10-60 second injection of antibody) and allowed to stabilize for 5 minutes. For these experiments, a fresh aliquot of Aβ 1-40 was thawed and then diluted 1:10 in HBS-EP running buffer. The 1:10 dilution was used to make up a 200 nM Aβ solution which was serially diluted (1:2 dilutions) to a lowest concentration of 6.25 nM. Each concentration was injected over the surface for 5 minutes at a flow rate of 50 μl/min (250 μl total). The Aβ and antibody were eluted from both flow cells with a 40s injection of glycine pH 1.5. The signal is allowed to stabilize for 2 minutes before the next cycle. […] The data was analyzed using the Biaevalution™ software. […]

T1 sequence (P05067 672-711 limits assumed): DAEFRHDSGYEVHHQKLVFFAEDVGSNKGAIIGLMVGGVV

B1: 1A1 Fab (Fab, V domains shown)
VH: EVQLVESGGGLVKPGGSLRLSCAASGYTFSRYSMSWVRQAPGKGLEWVGQINIRGNNTYYPDTVKGRFTISRDDSKNTLYLQMNSLKTEDTAVYYCTTGDFWGQGTLVTVSS
VL: DIVMTQTPLSLSVTPGQPASISCSSSQSLIYSDGNAYLHWYLQKPGQSPQLLIYKVSNRFSGVPDRFSGSGSGTDFTLKISRVEAEDVGVYYCTQSTHSPWTFGGGTKVEIK
notes: Fab clone
- Kd [1]: 1.9 pM
- koff [1]: 1.6e-06 s⁻¹
- kon [1]: 830000 M⁻¹ s⁻¹

B2: 1A1 monoclonal antibody (IgG1) (antibody, V domains shown)
VH: EVQLVESGGGLVKPGGSLRLSCAASGYTFSRYSMSWVRQAPGKGLEWVGQINIRGNNTYYPDTVKGRFTISRDDSKNTLYLQMNSLKTEDTAVYYCTTGDFWGQGTLVTVSS
VL: DIVMTQTPLSLSVTPGQPASISCSSSQSLIYSDGNAYLHWYLQKPGQSPQLLIYKVSNRFSGVPDRFSGSGSGTDFTLKISRVEAEDVGVYYCTQSTHSPWTFGGGTKVEIK
- Fold Increase (kon) [2]: 3 fold
- kon [3]: 580000 M⁻¹ s⁻¹ and 550000 M⁻¹ s⁻¹ and 390000 M⁻¹ s⁻¹
- Kd [4]: 3.2 pM and 5.7 pM
- kon [5]: 390000 M⁻¹ s⁻¹
- kon [6]: 851000 M⁻¹ s⁻¹
- Kd [7]: 4.5 pM
- Kd [8]: 1.2 pM
- koff [8]: 1.1e-06 s⁻¹
- kon [8]: 880000 M⁻¹ s⁻¹
- kon [9]: 913000 M⁻¹ s⁻¹
- Fold increase in affinity [10]: 17 fold
- kon [11]: 510000 M⁻¹ s⁻¹
- kon [12]: 762000 M⁻¹ s⁻¹
- kon [13]: 1.06e+06 M⁻¹ s⁻¹ and 954000 M⁻¹ s⁻¹ and 912000 M⁻¹ s⁻¹ and 883000 M⁻¹ s⁻¹
- Fold increase in kon [14]: 2 fold
- kon [15]: 976000 M⁻¹ s⁻¹

Other lines, results leading:

- Fold Increase (kon) [2]: 4 fold
- Kd [16]: 15100 pM
- kon [5]: 470000 M⁻¹ s⁻¹
- Fold increase in affinity [10]: 0.005 fold
- Kd [17]: 6310 pM
- koff [17]: 0.00074 s⁻¹
- kon [17]: 120000 M⁻¹ s⁻¹
B3: 1D4 monoclonal antibody (IgG1) (antibody, V domains shown)
VH: EVQLVESGGGLVKPGGSLRLSCAASGFTFSRYSMSWVRQAPGKGLEWVGQINSQGNSTYYPDTVKGRFTISRDDSKNTLYLQMNSLKTEDTAVYYCTTGDRWGQGTLVTVSS
VL: DIVMTQTPLSLSVTPGQPASISCRSSQSLIYSDGNAYLHWYLQKPGQSPQLLIYKVSNRFSGVPDRFSGSGSGTDFTLKISRVEAEDVGVYYCSQSTHSPWTFGGGTKVEIK

- Fold Increase (kon) [2]: 3 fold
- kon [18]: 410000 M⁻¹ s⁻¹
B4: 1A12 monoclonal antibody (IgG1) (antibody, V domains shown)
VH: EVQLVESGGGLVKPGGSLRLSCAASGFTFSRYSMSWVRQAPGKGLEWVGQINIRGNNTYYPDTVKGRFTISRDDSKNTLYLQMNSLKTEDTAVYYCTTGDFWGQGTLVTVSS
VL: DIVMTQTPLSLSVTPGQPASISCRSSQSLIYSDGNAYLHWYLQKPGQSPQLLIYKVSNRFSGVPDRFSGSGSGTDFTLKISRVEAEDVGVYYCSQSTHSPWTFGGGTKVEIK
